For one substance, Kd results are on record in patent publication US20260184814A1, “BROADLY NE[…] INFLUENZA NEURAMINIDASE” (priority 2022, published 2026).

The target in test [1] is N2 A/HongKong/2671/2019 (Influenza A virus (H3N2)).
The target in test [2] is N2 A/Switzerland/8060/2017 (Influenza A virus (H3N2)).

What is called Kd is the constant that tells how readily two partners part at equilibrium. As to 1G01 Fab, the Kd in test [1] and in test [2] was below 0.02 nM in each case.
